Experimental data from the DeepSol protein solubility set.

Test: soluble on expression in E. coli; label from the status in PepcDB or PDB records

Row | Sequence | soluble on expression in E. coli
1 | MAHHHHHHMWYSNLFVAKLPRHLCDGDLLQIFSNFNPLGAKIMLDPSTGNSKGFGFVLFDKEEEGRTAYERLNRKLVRVCNSSFNLLIYPSQHNGKAVTLPSRAVYIRNIPTTMGEREVQNFLSNLAPLEYCAMRGDHHGNPVWVVYAEFDTPQNAQRVLDKLHGNSNHFGGPPIMVKYADTDEAKRERRRRREEGRLAPGPALKGACLFPPPRPGVVSLNQTQVSQSATETSPSCSPAAHHVTKTKMVAPMVEVEPRAQPLYFSTSPVTAMPPLLPVDMSYDGAAATVPLQTADCPAANGVLVLGNGQQVFLTPNAVNLHPTKFNAPPTALLVPAVDTTLVPLPPQRTLVYGPW | not soluble
2 | MLQITKSLSIALTEIEMTALRSQGAGGQNVNKVASAIHLRFDIGASSLPDVYKERLLNLNDQRITKDGIVVIKAQSHRTQEQNREEALKRLQGLISSVITLPKPRRPTKPTRSSQRKRLDAKTKRSAVKALRKSIDELEHHHHHH | not soluble
3 | MAHHHHHHMVGLVKPLFPNTLLTEAQDERRLLTLVLDLDETLVSNRDSRQSAAVLRPYCLHVLNALRHMKELEIVLWTASTKETALPVVDQLHKTGIIFDDIIFRNSIWFTQPIHTKDLRLLGRDMNRVLIVDNSVGCCKLHPRNALLVEDFHGVKRREDAALVNVYYVVDALLRMMRERTMPVSEGLGCLMAEGQLCHPVSYDLPAFFKCIPLTEVPELKRPPVGRFARANTAPPNTSIMQHWVY | soluble
4 | MGHHHHHHSHMPLLVEGRRVRLPQSAGDLVRAHPPLEERARLLRGQSVQQVGPQGLLYVQQRELAVTSPKDGSISILGSDDATTCHIVVLRHTGNGATCLTHCDGTDTKAEVPLIMNSIKSFSDHAQCGRLEVHLVGGFSDDRQLSQKLTHQLLSEFDRQEDDIHLVTLCVTELNDREENENHFPVIYGIAVNIKTAEIYRASFQDRGPEEQLRAARTLAGGPMISIYDAETEQLRIGPYSWTPFPHVDFWLHQDDKQILENLSTSPLAEPPHFVEHIRSTLMFLKKHPSPAHTLFSGNKALLYKKNEDGLWEKISSPGS | not soluble
5 | MGSDKIHHHHHHMTEATKTDFSKLNVYQKLAYVRQKAPYIQKSKRGQQYSYVGSSDVLSALNTVINQVGLILKPEIVAHQVRESQDEVWKADKVKKEPVAKKRTTYFTELELMMTWINIHNPSEIVACSWYSQGVDIEGEKGVGKALTYAEKYFLLKFFNIATDDDDPDKYQKEQLKNTTITERQIDMLNASISRVAELAGQEFEAVKSLAINDSDLNPKKAFEEYSAYDYGVISKLLAKWINFYESRQKVQEDKK | not soluble
6 | MQKLTVGLIGNPNSGKTTLFNQLTGARQRVGNWAGVTVERKEGIFATTDHQVTLVDLPGTYSLTTISSQTSLDEQIACHYILSGDADMLINVVDASNLERNLYLTLQLLELGIPCVVALNMLDIAEKQQVRIDIDALAARLGCPVIPLVSTRGRGIEALKIALDRHQANSDLELVHYPQPLLREADLLAQQMSAQIPPRQRRWLGLQMLEGDIYSRAYAGDAADKLDIALANLSDEIDDPALHIADARYQTIAAICDAVSNTLTAEP | soluble
7 | MGSDKIHHHHHHMRKVGMTTTIPVEVVYAAGLIPVDLNNIFVTHENPQSLVEEAEMAGYPRNLCAWIKGLYSTILQNDDIQTLIAVTQGDCSNTHALMETLEMAGVNVIPFAFPFDRDYDLLKLQMEKLINTLGTTWDEVYHAKKRLDAIRSKVHELDRLTWQGDRVRGWDNHLYQVCCSDLEGDPEDFGRRVDQYLAELPAKEPIKAKVRLAYIGVPPIMDDLYDYVEERGARVVFNEVQRQFTMPFATDDIVEQYRIYSYPYGIFYRLQDISRELEQRQVDGVIHYAQSFCYRQIEDLIVRQKLKYPILTLEGDKPNKLDARTRMRLDAFLDMLR | not soluble
8 | SLKIKNILLSGGSGKRLWPLSRSLYPKQFLKLFDHKSLFELSFKRNASLVDETLIVCNEKHYFLALEEIKNEIKNKSVGFLLESLSKNTANAIALSALMSDKEDLLIVTPSDHLIKDLQAYENAIKKAIDLAQKGFLVTFGVSIDKPNTEFGYIESPNGLDVKRFIEKPSLDKAIEFQKSGGFYFNSGMFVFQAGVFLDELKKHAPTILKGCERAFESLENAYFFEKKIARLSEKSMQDLEDMSIDIALMQQSHKIKMVELNAKWSDLGNFNALFEEAANEPKENVSLNQTPVFAKESENNLVFSHKVSALLGVENLAVIDTKDALLIAHKDKAKDLKALVNEVETNN | soluble
9 | MSLTSSDVRNKYNFNSDWLLYVGDVPEAKQPRFSDSEWKKVTLPHAFNEDEAFRLSIDELTDTIMWYRKHFRLPANSKNKKVFVEFEGVRQGADFYINGQNVGLHENGVMAVGFDLTPYIKYGQENVIAVRIDNDWNYKERATGTKYQWSNKNFNANYGGIPKNVWLHVTDRLYQTLPLYSNLKTTGVYIYAEDIRVKSRKAIIHAESEIRNEYNRDKQVSYQVELIDRDGTSIQTFEGTKAVVKPGETITLKAASEVDNLHFWSWGYGYLYTVKTSLWVDGRKVDEVATRTGFRKTRFGKGMIWLNDRVIQMKGFAQRTSNEWPGVGMSVPAWLSDYSNHLMVEGNANLVRWMHVTPWKQDIESCDRVGLIQAMQAGDAEKDCEGRQWEQRTELMRDAIIYNRNNPSILFYECGNESISREHMIEMKAIRDLYDPHGGRAIGSREMLDIREAEYGGEMLYINKSAHHPMWAMEYCRDEGLRKYWDDYSYPYHKDGDGSNSYKSTVTNKVQKKVDARVYNRNQDSFTIENIIRWFDYWRERPGTGDRVSSGGVKIIFSDTNTHYRGVENYRRSGVTDAMRIPKDPFFAHQVMWDGWVDTECPRIYIVGHWNYNDTVVKPVYVVSSADKVELFLNGKSLGYGEQDYHFLYTFKDIAFVPGRLEAVGYDENGKECCRTQLQTAGKPEQIQLSFIQSPEGWKADGADMVLLQVEVMDKDGNRCPLANDLIHFEVEGPAEWRGGIAQGENNYILSKDLPVECGINRALIRSLTTAGNVRITAKADGLKPAEISLTSSPVEVKNGLSNYIPGDELEGRLTRGETPQTPSYKVSKVDVGIVSAIAGANNESTVNSFDDNELSEWRNDGKAATAWITYKLERAARVDEVCMKLTGWRMRSYPLEIYAGKELIWSGDTDKSLGYVHLDVKPVLTNEITIRLKGTSKEGDAFGQIVEVAAPVANELDLFKAKDGDKTGHELRIVEIEFKENLLKEGHHHHHH | soluble
10 | MGSLVREWVGFQQFPAATQEKLIEFFGKLKQKYLIVKMIQGAIRNDIKTSGKPL | not soluble
11 | MKPILALLSLLALPVMAAEPTLYGRYENIKVLEIGQTFKAKMDTGALTASLSAKDIELFQRDGDDWVRFRLATKGADDKVYEHKVSRISKIKGRAEGDDEDDEGINPAKRPVVDLELCLGNKKRTVEVNLVDRSHFNFPLLIGAKALREFGAAINPARRYTADEPDC | not soluble
12 | MVVLVTRSLLPALFFASRAPFAAATTSARFQRGLATMAAEAFTKHEVIPDVLASNPPSKVVSVKFNSGVEANLGNVLTPTQVKDTPEVKWDAEPGALYTLIKTDPDAPSRKEPTYREWHHWLVVNIPGNDIAKGDTLSEYIGAGPPPKTGLHRYVYLIYKQSGRIEDAEHGRLTNTSGDKRGGWKAADFVAKHKLGAPVFGNLFQAEYDDYVPILNKQLGA | not soluble
13 | MSLTEPEDPSRERLKHHFAQRVIHQARQILEIWQRLQRSEWSTTDMSELCEANLRLLRFAERFEQPEHTQLARSISQSLEAVDANRGRLSSNLITDLNRLMQRLSRTGLRHGDQLEQTFLPPLRKPIYVMLQDHDRAERLAKQLEFFGLSAQSLDSIPAFRSSMVERLPAAIVIDVDFCGAGMGLTLAAEAQVGLEQKLPLLFFSLHETDTPTRLAAVRAGGQEFLTGTLEASSLLEKIEVLTCVAQYEPYKVLIIDDSRAQALHTERLLNSAGIVTRTLIEPIQAMAELADFQPDLIILDMYMPACTGTELAKVIRHNDRYVSVPIIYLSAEDDLDKQLDAMSEGGDDFLTKPIKPRHLITTVRNRAARARNLKARMVRDSLTGEGHHHHHH | not soluble
14 | MRKAAVIGGSLGGLFAANLLLRAGWDVHVHERVHDELDGRGAGIVTHPELLDVLRRIGVAPTESIGIEVARRVTLDLDGSVLASRALPQLLTAWGRLFSILRTRFPAERYHRGQALESLEQDERRALLRFADGARAEVDLVVAADGLRSTLRQALLPQARPAYAGYVAWRGLVDEASLSERTRRELCPYFAFGLPAHEQMIAYPVAGTGSGAQDAARRFNFVWYRPADEHTTFRDMVTDAQGQAWMDGIPPPLIRPEIVAQARQAAAQVLAPQFGEVVAKTANLFFQPIFDLESPRLALGRVALLGDAAFVARPHCGMGVTKAAGDARALAYALAGTPDIGAALQAYEDERLPFGKFIVGHARDLGRYMQAQLRDDAEREMAERYRTPEAIMRETAVAPAWRLEHHHHHH | not soluble
15 | MAHHHHHHMMDMRQLDVSAVARSAMSCMEAKHMSANVKLYTLGFLTFLASSKSWQPYRMSHPDKVEEQALYEDSELASSFISTKYPAGWQQNASEVLNTKFPGLLGEVTAHLSLGGKDTISALPRRHDGR | not soluble
16 | MAKLGPAGYSPYPVAVTEGVLTPPPGKALMFNEIVDEEIAMREAAKAMLTRDNPTIFPGPQVLYAWNEEAKEKAKLVRKMAEVLGAKIIPMYDYRPKYPKIDPEKEINPNHPNLTIWHNKIKACIFIGVHCHYANVALKIIRAETDCFTIAMCSMAGHEDAMITLRDQHVEDLEKFIKIAEEVKKELGK | not soluble
17 | MEGNFSNRVQDVIRLSREEALRLGHDYIGTEHLLLGLIREGEGIGAKILKNLKVDLFQLKQKIEENTHPKVPATQMGNVPLTKQAEKVLKITYLEAKICKSTIIGTEHLLLSILKGDDNIAAQILEQFGVTYDQVRDELMTITT | not soluble
18 | MSVVALVLAAGSSVRFGADKRRSLMADGRSLLVHSVESACAVFDDVRVVLREGERGVDLGLPARCRVVSSPNFTLGMGHSLAAGAASLADSEAQAVAILLGDMPWVASATLDLLAREASGSTIVLPCHAGRQGHPVLFGRDFWPALARLKGDEGARSVVKANPAVCVRLEVQDAGVLQDVDRPDAVRPLEHHHHHH | soluble
19 | MGSDKIHHHHHHMEKLNFGIPEWAFEFHGHKCPYMPMGYRAGSYALKIAGLEKEKDHRTYLLSEMSPEDMNGCFNDGAQAATGCTYGKGLFSLLGYGKLALILYRPGRKAIRVHVRNSFMDELSTRASDFFRYRKQGYEPSEIPAGAIDPVLEWISSLEDEEIFEYREIDGFTFEPVKKNGAKVRCDVCGEYTYEADAKLLNGKPVCKPDYYGKK | not soluble
20 | MVKRAKLINDVVELIPIFHLLSTETYRKVYNALLEGWYTARELEEMIGEGYRDALRILKNAGMLEAKWRMPSDPGGKPEKEYHVSYTHVSANFYISLKDLNKVLEVVFMSDDEVEEYVREIIKEIEAGRTSVTYITKDLNLDPLFLRAIAKRSLKLNLKGQLIELAKDEEI | not soluble
21 | MSLHGKLIQFHKFGNPKDVLQVEYKNIEPLKDNEVFVRMLVRPINPSDLIPITGAYAHRIPLPNIPGYEGVGIVENVGAFVSRELIGKRVLPLRGEGTWQEYVKTSADFVVPIPDSIDDFTAAQMYINPLTAWVTCTETLNLQRNDVLLVNACGSAIGHLFAQLSQILNFRLIAVTRNNKHTEELLRLGAAYVIDTSTAPLYETVMELTNGIGADAAIDSIGGPDGNELAFSLRPNGHFLTIGLLSGIQVNWAEIVTKAKVHANIFHLRHWNDEVSPYKWQETFRHLIRLVENEQLRFMKVHSTYELADVKAAVDVVQSAEKTKGKVFLTSYEGHHHHHH | soluble
